From patent US20080227954A1 (ZEALAND PHARMA A S, published 2008)
Where no end group is shown, it is not given here.

Experiments:
[1] = target: T1, µ opioid receptor (bovine caudate nucleus synaptic membrane fraction) (bovine, UniProt P79350 1-401); assay: displacement of 1 nM [3H]DAMGO, bovine caudate synaptic membranes; column Time 18 hours
T1 construct: whole, on cells; Native receptor in brain membranes, not on intact cells; The tissue may hold other opioid receptors; also called µ-receptor; µ opioid receptors
T1 sequence (P79350 whole entry): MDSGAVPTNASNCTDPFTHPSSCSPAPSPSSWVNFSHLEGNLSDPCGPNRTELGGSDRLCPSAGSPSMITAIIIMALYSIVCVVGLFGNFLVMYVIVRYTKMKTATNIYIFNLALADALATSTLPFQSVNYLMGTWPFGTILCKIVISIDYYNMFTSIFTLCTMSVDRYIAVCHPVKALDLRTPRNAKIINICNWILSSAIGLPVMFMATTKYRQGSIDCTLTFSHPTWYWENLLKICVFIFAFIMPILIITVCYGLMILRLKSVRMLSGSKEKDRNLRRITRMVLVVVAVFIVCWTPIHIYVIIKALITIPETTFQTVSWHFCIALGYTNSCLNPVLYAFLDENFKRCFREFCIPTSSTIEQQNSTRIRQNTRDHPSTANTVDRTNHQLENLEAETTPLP

[2] = target: T1, µ opioid receptor (bovine caudate …); assay: displacement of 1 nM [3H]DAMGO, bovine caudate synaptic membranes; column Time 0 hours; mean ± SD
Description: (§1) Affinities for […] opioid receptor were determined using [³H](D-Ala²,N-Me-Phe⁴, Gly-ol⁵) Enkephalin (DAMGO) (1 nM) as described by Christensen, 1993, Pharmacol. Toxicol. 73:344-345. In short: Bovine brains were placed on ice within minutes after the slaughter. The caudate nuclei were dissected and homogenized in 20 vol. of 0.32 M sucrose. The homogenate was centrifuged at 2000 g for 10 min. The pellet was re-suspended in 10 vol. of 50 mM Tris-HCl buffer 7.4 and stored at −20° C. until use. The synaptic membrane fraction was incubated with 1 nM of [3H]DAMGO in the presence of various concentrations of test ligand. Non-specifically bound [3H]-DAMGO was established using 1 μM naloxone. Following 15 min. incubation at 36° C. samples were filtered through Whatman GF/C filters and washed with buffer. Radioactivity was determined using conventional techniques.

[3] = target: PTH (1-34)-antibody of the enzyme immunoassay EIAS(h)-6101 (Peninsula Laboratories, Inc.); assay: competitive EIA against biotinylated peptide for the PTH(1-34) antibody
[4] = target: T1, µ opioid receptor (bovine caudate …); assay: displacement of 1 nM [3H]DAMGO, bovine caudate synaptic membranes; column Time 0 hours
Description: as §1

| Binder | IC50 [1] [µM] | IC50 [2] [µM] | Relative recovery % [3] [%] | IC50 [4] [µM] |
| --- | --- | --- | --- | --- |
| YGGFLKEKEKE-OH [Leu-Enkephalin-(Lys-Glu)3-OH] | 0.9 | 0.45 | – | – |
| H-SVSEIQLMHNLGKHLNSMERVEWLRKKLQDVHNFKKKKKK-OH [H-hPTH(1-34)-K6-OH (PTH(1-34)(Human)-Lys6-OH)] | – | – | 61.8 | – |
| SVSEIQLMHNLGKHLNSMERVEWLRKKLQDVHNF-OH [hPTH (1-34) (PTH(1-34)(Human)-OH)] | – | – | 90.8 | – |
| H-YGGFLEEEEEE-OH [Leu-Enkephalin-(Glu)6-OH (H-Tyr-Gly-Gly-Phe-Leu-Glu6-OH)] | 5 | – | – | 10 |
| H-KKKKKKSVSEIQLMHNLGKHLNSMERVEWLRKKLQDVHNF-OH [H-K6-PTH(1-34)-OH (Lys6-PTH(1-34)(Human)-OH)] | – | – | 79.1 | – |
| H-YGGFLKKKKKK-OH (also called H-Leu-enkephalin-Lys6) [Leu-Enkephalin-(Lys)6-OH (H-Tyr-Gly-Gly-Phe-Leu-Lys6-OH)] | 0.032 | 0.017 | – | – |
